Data reported in patent US20040214255A1 (MYRIAD GENETICS, published 2004).
Values belong to the binder of their own block, whether it stands above or below them.

What was measured:
Experiment in all cases: yeast two-hybrid
[1] = target: T1, NuMA1, amino acids 98-365 (human, UniProt Q14980 98-365)
T1 construct: range 98-365; also called nuclear mitotic apparatus protein NuMA1
T1 sequence (looked up): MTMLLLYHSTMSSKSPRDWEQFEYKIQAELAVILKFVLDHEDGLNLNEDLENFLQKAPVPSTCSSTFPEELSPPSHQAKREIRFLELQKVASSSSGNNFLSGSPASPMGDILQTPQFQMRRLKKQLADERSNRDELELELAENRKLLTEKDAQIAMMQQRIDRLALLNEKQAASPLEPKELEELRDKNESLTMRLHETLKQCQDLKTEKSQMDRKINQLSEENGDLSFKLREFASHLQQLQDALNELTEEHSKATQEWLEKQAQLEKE
Source text: (§1) The new construct was selected directly in the yeast strain PNY200 for its ability to drive tryptophane synthesis (genotype of this strain: […] trp1-901 leu2-3,112 ura3-52 his3-200 ade2 gal4Δ gal80). In these yeast cells, the bait was produced as a C-terminal fusion protein with the DNA binding domain of the transcription factor Ga14 (amino acids 1 to 147). Prey libraries were transformed into the yeast strain BK100 (genotype of this strain: MATα trp1-901 leu2-3,112 ura3-52 his3-200 gal4Δ gal80 LYS2::GAL-HIS3 GAL2-ADE2 met2::GAL7-lacZ), and selected for the ability to drive leucine synthesis. In these yeast cells, each cDNA was expressed as a fusion protein with the transcription activation domain of the transcription factor Ga14 (amino acids 768 to 881) and a 9 amino acid hemagglutinin epitope tag. PNY200 cells (MATα mating type), expressing the bait, were then mated with BK100 cells (MATa mating type), expressing prey proteins from a prey library. The resulting diploid yeast cells expressing proteins interacting with the bait protein were selected for the ability to synthesize tryptophan, leucine, histidine, and adenine. DNA was prepared from each clone, transformed by electroporation into E. coli strain KC8 (Clontech KC8 electrocompetent cells, Catalog No. C2023-1), and the cells were selected on ampicillin-containing plates in the absence of either tryptophane (selection for the bait plasmid) or leucine (selection for the library plasmid). DNA for both plasmids was prepared and sequenced by the dideoxynucleotide chain termination method. The identity of the bait cDNA insert was confirmed and the cDNA insert from the prey library plasmid was identified using the BLAST program to search against public nucleotide and protein databases. Plasmids from the prey library were then individually transformed into yeast cells together with a plasmid driving the synthesis of lamin and 5 other test proteins, respectively, fused to the Ga14 DNA binding domain. Clones that gave a positive signal in the β-galactosidase assay were considered false-positives and discarded. […] Clones that gave a positive signal in the β-galactosidase assay were considered true positives.

[2] = target: T2, Insulin-Regulated Membrane-Spanning Aminopeptidase (IRAP), amino acids 129-473 (human, UniProt Q9UIQ6 129-473)
T2 construct: range 129-473; also called vp165; gp160
T2 sequence (Q9UIQ6 129-473 limits assumed): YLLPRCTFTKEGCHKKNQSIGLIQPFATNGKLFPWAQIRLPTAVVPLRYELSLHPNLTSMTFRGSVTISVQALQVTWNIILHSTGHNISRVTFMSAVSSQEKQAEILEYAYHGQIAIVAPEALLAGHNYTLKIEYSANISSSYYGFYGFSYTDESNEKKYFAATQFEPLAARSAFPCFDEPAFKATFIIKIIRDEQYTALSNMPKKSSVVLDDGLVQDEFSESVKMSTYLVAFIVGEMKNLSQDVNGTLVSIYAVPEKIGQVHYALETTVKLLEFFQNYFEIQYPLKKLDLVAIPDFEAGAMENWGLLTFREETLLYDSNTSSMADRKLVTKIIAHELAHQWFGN
Source text: as §1

[3] = target: T3, Alpha Acid Glucosidase (GAA), amino acids 513-953 (human, UniProt P10253 513-952)
T3 construct: range 513-953
T3 sequence (P10253 513-952 limits assumed): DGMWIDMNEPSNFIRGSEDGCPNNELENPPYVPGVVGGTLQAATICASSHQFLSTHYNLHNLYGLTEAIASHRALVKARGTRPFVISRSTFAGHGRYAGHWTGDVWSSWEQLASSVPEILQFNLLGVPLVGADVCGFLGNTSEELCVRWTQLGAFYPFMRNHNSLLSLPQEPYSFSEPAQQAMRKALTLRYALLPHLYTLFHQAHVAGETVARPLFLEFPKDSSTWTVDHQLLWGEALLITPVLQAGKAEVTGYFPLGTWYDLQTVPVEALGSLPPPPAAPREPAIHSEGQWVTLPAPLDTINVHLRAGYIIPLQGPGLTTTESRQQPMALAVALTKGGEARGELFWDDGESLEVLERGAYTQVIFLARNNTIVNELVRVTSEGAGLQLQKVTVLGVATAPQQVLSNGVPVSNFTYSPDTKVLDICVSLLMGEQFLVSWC
Source text: as §1

[4] = target: T4, Myosin Heavy Chain (Swiss Protein P13533), amino acids 1589-1909 (human, UniProt P13533 1589-1909)
T4 construct: range 1589-1909; also called cardiac muscle myosin heavy chain; MYSA
T4 sequence (P13533 1589-1909, one chain of several): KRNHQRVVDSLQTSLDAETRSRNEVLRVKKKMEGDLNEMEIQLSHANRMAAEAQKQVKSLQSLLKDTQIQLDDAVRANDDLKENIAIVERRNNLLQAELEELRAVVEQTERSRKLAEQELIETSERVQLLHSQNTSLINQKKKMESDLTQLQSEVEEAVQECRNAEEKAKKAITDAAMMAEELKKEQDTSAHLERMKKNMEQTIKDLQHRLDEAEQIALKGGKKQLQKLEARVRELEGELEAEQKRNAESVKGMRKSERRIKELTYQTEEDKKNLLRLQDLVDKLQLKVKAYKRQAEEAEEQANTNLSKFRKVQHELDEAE
Source text: as §1

[5] = target: T5, Dynamin, amino acids 104-365 (human, UniProt Q05193 104-365)
T5 construct: range 104-365
T5 sequence (looked up): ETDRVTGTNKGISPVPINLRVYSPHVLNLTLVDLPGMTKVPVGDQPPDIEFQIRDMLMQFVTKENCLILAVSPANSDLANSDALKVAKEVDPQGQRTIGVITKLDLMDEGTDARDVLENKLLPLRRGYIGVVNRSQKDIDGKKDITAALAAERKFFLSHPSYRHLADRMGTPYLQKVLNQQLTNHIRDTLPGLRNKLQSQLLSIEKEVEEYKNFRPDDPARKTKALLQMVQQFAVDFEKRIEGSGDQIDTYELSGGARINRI
Source text: as §1

[6] = target: T6, Dynamin, amino acids 250-700 (human, UniProt Q05193 250-700)
T6 construct: range 250-700
T6 sequence (looked up): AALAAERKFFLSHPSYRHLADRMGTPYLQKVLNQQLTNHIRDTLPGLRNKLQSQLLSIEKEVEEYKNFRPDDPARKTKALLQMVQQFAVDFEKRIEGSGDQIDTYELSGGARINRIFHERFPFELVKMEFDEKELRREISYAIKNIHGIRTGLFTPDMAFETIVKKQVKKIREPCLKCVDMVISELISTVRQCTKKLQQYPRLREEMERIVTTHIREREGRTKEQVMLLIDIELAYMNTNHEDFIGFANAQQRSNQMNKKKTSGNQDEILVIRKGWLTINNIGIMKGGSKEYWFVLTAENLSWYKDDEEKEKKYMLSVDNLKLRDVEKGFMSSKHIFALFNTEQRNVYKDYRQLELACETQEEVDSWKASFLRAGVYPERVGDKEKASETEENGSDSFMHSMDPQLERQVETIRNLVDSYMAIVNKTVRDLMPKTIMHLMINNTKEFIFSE
Source text: as §1

[7] = target: T7, NuMA1, amino acids 185-361 (human, UniProt Q14980 185-361)
T7 construct: range 185-361; also called nuclear mitotic apparatus protein NuMA1
T7 sequence (looked up): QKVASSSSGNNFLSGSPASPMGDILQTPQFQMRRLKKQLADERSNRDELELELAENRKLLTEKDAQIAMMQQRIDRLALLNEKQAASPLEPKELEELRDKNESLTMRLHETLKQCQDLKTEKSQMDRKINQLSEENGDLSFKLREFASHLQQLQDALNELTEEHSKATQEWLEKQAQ
Source text: as §1

[8] = target: T8, BAP31, amino acids 111-247 (human, UniProt P51572 111-246)
T8 construct: range 111-247
T8 sequence (looked up): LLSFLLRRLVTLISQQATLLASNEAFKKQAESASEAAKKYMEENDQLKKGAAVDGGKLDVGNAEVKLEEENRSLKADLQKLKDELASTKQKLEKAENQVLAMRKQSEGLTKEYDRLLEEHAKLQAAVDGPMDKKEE
Source text: as §1

[9] = target: T9, Tropomyosin 3, amino acids 171-286 (human, UniProt P06753 171-285)
T9 construct: range 171-286
T9 sequence (P06753 171-285 limits assumed): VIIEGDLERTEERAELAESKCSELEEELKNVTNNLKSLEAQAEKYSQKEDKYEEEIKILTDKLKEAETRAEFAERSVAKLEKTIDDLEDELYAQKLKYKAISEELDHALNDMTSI
Source text: as §1

[10] = target: T10, 14-3-3-Zeta, amino acids 79-246 (human, UniProt P63104 79-245)
T10 sequence: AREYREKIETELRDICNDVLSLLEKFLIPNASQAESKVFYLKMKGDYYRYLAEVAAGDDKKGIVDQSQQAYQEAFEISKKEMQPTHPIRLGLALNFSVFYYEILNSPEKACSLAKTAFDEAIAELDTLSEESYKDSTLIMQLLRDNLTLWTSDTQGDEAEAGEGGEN
Source text: as §1

[11] = target: T11, 14-3-3-Eta, amino acids 91-246 (human, UniProt Q04917 91-246)
T11 construct: range 91-246
T11 sequence (looked up): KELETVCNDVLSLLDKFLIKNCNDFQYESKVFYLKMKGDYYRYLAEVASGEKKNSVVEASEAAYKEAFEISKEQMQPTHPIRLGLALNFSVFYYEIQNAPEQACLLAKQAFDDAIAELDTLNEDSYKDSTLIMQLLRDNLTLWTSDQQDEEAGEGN
Source text: as §1

B1: Akt kinase 2 (Akt2), amino acids 1-152 (enzyme, human, UniProt P31751 1-152, looked up)
chain: MNEVSVIKEGWLHKRGEYIKTWRPRYFLLKSDGSFIGYKERPEAPDQTLPPLNNFSVAECQLMKTERPRPNTFVIRCLQWTTVIERTFHVDSPDEREEWMRAIQMVANSLKQRAPGEDPMDYKCGSPSDSSTTEEMEVAVSKARAKVTMNDF
notes: range 1-152
- binding result [1]: binds

B2: 14-3-3 Beta, amino acids 97-236 (other, human, UniProt P31946 97-236, looked up)
chain: NDVLELLDKYLIPNATQPESKVFYLKMKGDYFRYLSEVASGDNKQTTVSNSQQAYQEAFEISKKEMQPTHPIRLGLALNFSVFYYEILNSPEKACSLAKTAFDEAIAELDTLNEESYKDSTLIMQLLRDNLTLWTSENQG
notes: range 97-236
- binding result [2]: binds

B3: PI-3 kinase p110 subunit, amino acids 1-300 (enzyme)
chain: MCFSFIMPPAMADILDIWAVDSQIASDGSIPVDFLLPTGIYIQLEVPREATISYIKQMLWKQVHNYPMFNLLMDIDSYMFACVNQTAVYEELEDETRRLCDVRPFLPVLKLVTRSCDPGEKLDSKIGVLIGKGLHEFDSLKDPEVNEFRRKMRKFSEEKILSLVGLSWMDWLKQTYPPEHEPSIPENLEDKLYGGKLIVAVHFENCQDVFSFQVSPNMNPIKVNELAIQKRLTIHGKEDEVSPYDYVLQVSGRVEYVFGDHPLIQFQYIRNCVMNRALPHFILVECCKIKKMYEQEMIAI
notes: range 1-300; also called PI-3K110; p110 catalytic subunit of PI-3 kinase
- binding result [3]: binds

B4: Glucose Transporter 1, amino acids 448-493 (other, human, UniProt P11166 448-492, looked up)
chain: TYFKVPETKGRTFDEIASGFRQGGASQSDKTPEELFHPLGADSQV
notes: range 448-493; also called GLUT1; Glut1
- binding result [4]: binds

B10: Glut4, amino acids 434-510 (other, human, UniProt P14672 434-509, looked up)
chain: IGMGFQYVAEAMGPYVFLLFAVLLLGFFIFTFLRVPETRGRTFDQISAAFHRTPSLLEQEVKPSTELEYLGPDEND
notes: range 434-510; also called Glucose Transporter 4
- binding result [9]: binds

B11: PI-3K85, amino acids 1-50 (other, human, UniProt P27986 1-50, looked up)
chain: MSAEGYQYRALYDYKKEREEDIDLHLGDILTVNKGSLVALGFSDGQEARP
notes: range 1-50; also called p85 regulatory subunit of PI-3 kinase; PI-3 kinase p85
- binding result [10]: binds
- binding result [11]: binds

Second part, the binder after the results:

- binding result [5]: binds
B5: GLUT1, amino acids 463-492 (other, human, UniProt P11166 463-492, looked up)
chain: IASGFRQGGASQSDKTPEELFHPLGADSQV
notes: range 463-492; also called Glucose Transporter 1

- binding result [6]: binds
B6: Proteosome Activator Subunit Psme3, amino acids 72-254 (other, human, UniProt P61289 72-254, looked up)
chain: LTNSHDGLDGPTYKKRRLDECEEAFQGTKVFVMPNGMLKSNQQLVDIIEKVKPEIRLLIEKCNTVKMWVQLLIPRIEDGNNFGVSIQEETVAELRTVESEAASYLDQISRYYITRAKLVSKIAKYPHVEDYRRTVTEIDEKEYISLRLIISELRNQYVTLHDMILKNIEKIKRPRSSNAETLY
notes: range 72-254

- binding result [7]: binds
B7: Akt kinase 1 (Akt1), amino acids 1-118 (enzyme, human, UniProt P31749 1-118, looked up)
chain: MSDVAIVKEGWLHKRGEYIKTWRPRYFLLKNDGTFIGYKERPQDVDQREAPLNNFSVAQCQLMKTERPRPNTFIIRCLQWTTVIERTFHVETPEEREEWTTAIQTVADGLKKQEEEEM
notes: range 1-118

- binding result [8]: binds
B8: Akt kinase 2 (Akt2), amino acids 276-408 (enzyme, human, UniProt P31751 276-408, looked up)
chain: IKLENLMLDKDGHIKITDFGLCKEGISDGATMKTFCGTPEYLAPEVLEDNDYGRAVDWWGLGVVMYEMMCGRLPFYNQDHERLFELILMEEIRFPRTLSPEAKSLLAGLLKKDPKQRLGGGPSDAKEVMEHRF
notes: range 276-408

- binding result [6]: binds
B9: Clathrin Assembly Protein (CALM), amino acids 267-484 (other, human, UniProt Q13492 267-484, looked up)
chain: LSQAPSSLLDALEQHLASLEGKKIKDSTAASRATTLSNAVSSLASTGLSLTKVDEREKQAALEEEQARLKALKEQRLKELAKKPHTSLTTAASPVSTSAGGIMTAPAIDIFSTPSSSNSTSKLPNDLLDLQQPTFHPSVHPMSTASQVASTWGDPFSATVDAVDDAIPSLNPFLTKSSGDVHLSISSDVSTFTTRTPTHEMFVGFTPSPVAQPHPSAG
notes: range 267-484
